Blank lines part the entries; values can stand above or below the binder they belong to.
How the values were obtained:
KISS ME DEADLY 1 (KMD1) [1] = target: T1, KISS ME DEADLY 1 (KMD1) (Arabidopsis, UniProt Q9M8L2 1-354); experiment: BiFC (YFP^N/YFP^C fusions) in Arabidopsis protoplasts
T1 construct: Full-length protein; also called At1g80440
T1 sequence (looked up): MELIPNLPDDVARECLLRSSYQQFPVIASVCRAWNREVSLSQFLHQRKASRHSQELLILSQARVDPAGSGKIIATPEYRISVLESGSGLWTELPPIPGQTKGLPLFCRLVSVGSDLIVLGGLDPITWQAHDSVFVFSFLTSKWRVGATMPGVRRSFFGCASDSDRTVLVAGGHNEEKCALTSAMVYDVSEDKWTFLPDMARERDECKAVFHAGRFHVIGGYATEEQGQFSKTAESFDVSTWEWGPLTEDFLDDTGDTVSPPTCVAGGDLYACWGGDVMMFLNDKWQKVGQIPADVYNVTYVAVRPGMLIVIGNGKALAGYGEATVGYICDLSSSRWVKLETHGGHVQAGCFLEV
Procedure: (§1) Arabidopsis protoplasts were transfected as described (Kovtun, et al. (2000) Proc. Natl. Acad. Sci. USA 97(6):2940-2945) and incubated overnight at 22° C. under dim light (5 […]) and examined with an Axioplan2 fluorescent microscope (Carl Zeiss).
(§2) KMD proteins contain a conserved amino-terminal F-box motif. To determine if KMDs function as canonical F-box proteins, their interactions with known components of the Arabidopsis SCF complex were examined.

KISS ME DEADLY 2 (KMD2) [2] = target: T2, KISS ME DEADLY 2 (KMD2) (Arabidopsis, UniProt Q9LMR5 1-359); experiment: as above
T2 construct: Full-length protein; LexA fusion in yeast two-hybrid, YFP^N or YFP^C fusion in BiFC; also called At1g15670
T2 sequence (looked up): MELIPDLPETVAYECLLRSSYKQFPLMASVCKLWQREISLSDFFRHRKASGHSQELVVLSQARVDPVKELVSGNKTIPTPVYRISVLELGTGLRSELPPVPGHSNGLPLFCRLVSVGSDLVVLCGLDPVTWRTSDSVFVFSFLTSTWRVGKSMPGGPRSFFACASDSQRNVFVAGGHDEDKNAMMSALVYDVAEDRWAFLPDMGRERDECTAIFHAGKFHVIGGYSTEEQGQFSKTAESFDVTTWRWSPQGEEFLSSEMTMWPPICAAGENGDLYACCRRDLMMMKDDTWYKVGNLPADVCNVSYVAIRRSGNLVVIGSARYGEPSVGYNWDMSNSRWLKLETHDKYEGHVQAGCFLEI
Procedure: as §1, §2

KISS ME DEADLY 4 (KMD4) [3] = target: T3, KISS ME DEADLY 4 (KMD4) (Arabidopsis, UniProt Q9M1Y1 1-418); experiment: as above
T3 construct: Full-length protein; LexA fusion in yeast two-hybrid, YFP^N or YFP^C fusion in BiFC; also called At3g59940
T3 sequence (looked up): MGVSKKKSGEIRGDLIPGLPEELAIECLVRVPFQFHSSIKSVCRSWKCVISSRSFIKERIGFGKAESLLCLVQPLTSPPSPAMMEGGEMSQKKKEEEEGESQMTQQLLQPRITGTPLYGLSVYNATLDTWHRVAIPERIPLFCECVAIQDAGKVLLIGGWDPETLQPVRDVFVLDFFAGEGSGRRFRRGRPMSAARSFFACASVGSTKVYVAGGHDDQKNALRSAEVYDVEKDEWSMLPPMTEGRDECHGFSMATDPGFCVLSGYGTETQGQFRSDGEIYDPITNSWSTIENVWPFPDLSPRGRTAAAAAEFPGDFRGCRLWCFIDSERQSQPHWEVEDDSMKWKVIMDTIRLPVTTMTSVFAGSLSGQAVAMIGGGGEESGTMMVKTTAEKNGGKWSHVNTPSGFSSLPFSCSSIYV
Procedure: as §1, §2

KISS ME DEADLY 3 (KMD3) [4] = target: T4, KISS ME DEADLY 3 (KMD3) (Arabidopsis, UniProt O80582 1-409); experiment: as above
T4 construct: Full-length protein; LexA fusion in yeast two-hybrid, YFP^N or YFP^C fusion in BiFC; also called At2g44130
T4 sequence (looked up): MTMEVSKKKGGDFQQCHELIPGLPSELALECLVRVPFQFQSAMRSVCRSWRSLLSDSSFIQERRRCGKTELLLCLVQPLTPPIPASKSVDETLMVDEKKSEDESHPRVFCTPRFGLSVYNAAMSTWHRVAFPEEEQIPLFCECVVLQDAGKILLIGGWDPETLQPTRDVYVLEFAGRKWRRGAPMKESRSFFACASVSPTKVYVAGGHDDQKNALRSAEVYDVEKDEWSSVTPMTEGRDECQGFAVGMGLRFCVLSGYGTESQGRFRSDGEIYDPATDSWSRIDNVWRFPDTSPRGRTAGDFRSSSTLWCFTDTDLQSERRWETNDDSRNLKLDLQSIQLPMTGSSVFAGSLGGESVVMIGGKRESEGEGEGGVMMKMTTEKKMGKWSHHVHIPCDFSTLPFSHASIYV
Procedure: as §1, §2

KISS ME DEADLY 1 (KMD1) [5] = target: T1, KISS ME DEADLY 1 (KMD1); experiment: yeast two-hybrid (LexA-KMD bait, X-gal)
Description: (§3) The DUPLEX-A™ system (OriGene Technologies) was used for yeast two-hybrid analysis of interactions. KMD cDNAs were cloned into the pGilda bait vector, which produces an in-frame fusion with the LexA DNA-binding domain. Type-B ARR coding sequences were cloned into the pJG4-5 prey vector, which produces a B42 activation domain. The yeast strain EGY48 (MATa, trp1, his3, ura3, leu2::6 LexAop-LEU2) that contains the lacZ reporter plasmid pSH18-34 was transformed with the appropriate “bait” and “prey” plasmids. Interactions were tested on 5-bromo-4-chloro-3-indolyl-p-D-galactopyranoside (X-gal) medium (Ryu, et al. (2005) Cell 120(3): 395-406).
(§4) The KMD proteins also interacted with ARR20 (type-B ARR subfamily-3), but not with ARR19 (subfamily-2) and ARR21 (subfamily-3). […] All four KMD proteins interacted with both ARR1 and ARR12 in a BiFC assay. Strong fluorescence was detected in the nuclei of cells, consistent with the subcellular localization of the type-B ARRs (Hwang & Sheen J (2001) Nature 413(6854):383-389; Mason, et al. (2004) Plant Physiol. 135(2):927-937).

KISS ME DEADLY 2 (KMD2) [6] = target: T2, KISS ME DEADLY 2 (KMD2); experiment: yeast two-hybrid (LexA-KMD bait, X-gal)
Description: as §3, §4

KISS ME DEADLY 4 (KMD4) [7] = target: T3, KISS ME DEADLY 4 (KMD4); experiment: yeast two-hybrid (LexA-KMD bait, X-gal)
Description: as §3, §4

KISS ME DEADLY 3 (KMD3) [8] = target: T4, KISS ME DEADLY 3 (KMD3); experiment: yeast two-hybrid (LexA-KMD bait, X-gal)
Description: as §3, §4

ARR12 = target: T5, ARR12 (Arabidopsis, UniProt P62598 1-596); experiment: yeast two-hybrid, positive control
T5 construct: YFP^N or YFP^C fusion of the full-length cDNA in BiFC; also called AtARR12; type-B response regulator AtARR12
T5 sequence (looked up): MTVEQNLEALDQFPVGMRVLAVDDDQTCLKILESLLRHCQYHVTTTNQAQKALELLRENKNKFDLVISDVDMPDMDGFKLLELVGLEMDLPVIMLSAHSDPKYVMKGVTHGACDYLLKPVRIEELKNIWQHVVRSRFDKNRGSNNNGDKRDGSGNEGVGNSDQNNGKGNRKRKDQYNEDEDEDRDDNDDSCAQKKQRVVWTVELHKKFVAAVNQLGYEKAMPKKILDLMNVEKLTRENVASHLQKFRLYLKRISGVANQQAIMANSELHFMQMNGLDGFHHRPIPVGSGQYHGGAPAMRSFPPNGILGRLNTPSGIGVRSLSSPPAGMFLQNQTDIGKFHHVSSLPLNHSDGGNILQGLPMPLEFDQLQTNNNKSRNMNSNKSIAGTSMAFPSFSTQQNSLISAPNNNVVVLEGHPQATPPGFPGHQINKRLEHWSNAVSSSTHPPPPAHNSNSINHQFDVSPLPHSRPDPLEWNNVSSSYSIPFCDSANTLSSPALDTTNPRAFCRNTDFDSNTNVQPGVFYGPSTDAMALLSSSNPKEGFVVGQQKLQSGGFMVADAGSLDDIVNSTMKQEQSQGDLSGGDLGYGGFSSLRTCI

KISS ME DEADLY 4 (KMD4) [9] = target: T3, KISS ME DEADLY 4 (KMD4); experiment: yeast two-hybrid (LexA-KMD bait, B42-ARR prey, X-gal)
Description: as §3, §4

KISS ME DEADLY 3 (KMD3) [10] = target: T4, KISS ME DEADLY 3 (KMD3); experiment: as above
Description: as §3, §4

binding result (KISS ME DEADLY 1 (KMD1) [1]): binds
binding result (KISS ME DEADLY 2 (KMD2) [2]): binds
binding result (KISS ME DEADLY 4 (KMD4) [3]): binds
binding result (KISS ME DEADLY 3 (KMD3) [4]): binds
B1: ASK1, an Arabidopsis Skp1 protein of the SCF complex (other, UniProt Q39255 1-160, looked up)
chain: MSAKKIVLKSSDGESFEVEEAVALESQTIAHMVEDDCVDNGVPLPNVTSKILAKVIEYCKRHVEAAASKAEAVEGAATSDDDLKAWDADFMKIDQATLFELILAANYLNIKNLLDLTCQTVADMIKGKTPEEIRTTFNIKNDFTPEEEEEVRRENQWAFE
notes: Full-length cDNA fused to YFP^N or YFP^C for BiFC

binding result (KISS ME DEADLY 1 (KMD1) [5]): no binding
binding result (KISS ME DEADLY 2 (KMD2) [6]): no binding
binding result (KISS ME DEADLY 4 (KMD4) [7]): no binding
binding result (KISS ME DEADLY 3 (KMD3) [8]): no binding
B2: ARR7 (type-A ARR) (other, Arabidopsis, UniProt Q9ZWS7 1-206, looked up)
chain: MAVGEVMRMEIPAGGDLTVTTPELHVLAVDDSIVDRKVIERLLRISSCKVTTVESGTRALQYLGLDGGKGASNLKDLKVNLIVTDYSMPGLSGYDLLKKIKESSAFREVPVVIMSSENILPRIQECLKEGAEEFLLKPVKLADVKRIKQLIMRNEAEECKILSHSNKRKLQEDSDTSSSSHDDTSIKDSSCSKRMKSESENLFSLL
notes: Prey in yeast two-hybrid

binding result (ARR12): binds
B3: phosphotransfer protein AtAHP2 (other, Arabidopsis, UniProt Q9ZNV8 1-156, looked up)
chain: MDALIAQLQRQFRDYTISLYQQGFLDDQFTELKKLQDDGSPDFVSEVLSLFFEDCVKLISNMARALDTTGTVDFSQVGASVHQLKGSSSSVGAKRVKTLCVSFKECCEAKNYEGCVRCLQQVDIEYKALKTKLQDMFNLEKQIIQAGGIVPQVDIN
notes: Positive control in the yeast two-hybrid test with AtARR12; construct not described

binding result (KISS ME DEADLY 4 (KMD4) [9]): no binding
binding result (KISS ME DEADLY 3 (KMD3) [10]): no binding
B4: ARR19 (subfamily-2) (other, Arabidopsis, UniProt Q9M9B9 1-407, looked up)
chain: MLVGKISGYEDNTRSLERETSEITSLLSQFPGNTNVLVVDTNFTTLLNMKQIMKQYAYQVSIETDAEKALAFLTSCKHEINIVIWDFHMPGIDGLQALKSITSKLDLPVVIMSDDNQTESVMKATFYGACDYVVKPVKEEVMANIWQHIVRKRLIFKPDVAPPKPRMTWSEVFQPVQSHLVPTDGLDRDHFDSITINGGNGIQNMEKKQGKKPRKPRMTWTEELHQKFLEAIEIIGGIEKANPKVLVECLQEMRIEGITRSNVASHLQKHRINLEENQIPQQTQGNGWATAYGTLAPSLQGSDNVNTTIPSYLMNGPATLNQIQQNQYQNGFLTMNNNQIITNPPPPLPYLDHHHQQQHQSSPQFNYLMNNEELLQASGLSATDLELTYPSLPYDPQEYLINGYNYN
